To fix the notation:
B1: TPR t1 (parent)
chain: GACCAAUCUGCCCUCAGAGCUCGAGAACAUCUUCGGAUGCAGAGGAGGCAGGCUUCGGUGGCGCGAUAGCGCCAACGUCCUCAACCUCCAAUGCAUCCCACCACAUGAUGAUGCCUGAAGAGCCUUGGUUUUUUG

The variants in this series derive from B1. The series can be described thus: polymerase ribozyme fitness, log enrichment relative to wild type (log ratio); higher = more active; in vitro selection for triplet polymerase activity. In short, it runs like this: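 One round of in vitro selection, in triplicate, was applied to PCR-built, transcribed mutant libraries of each subunit of a heterodimeric triplet polymerase ribozyme. The steps were annealing with a biotinylated primer, partner subunit and triplets, incubation frozen at −7 °C, gel excision of extended constructs, streptavidin-bead capture and RT-PCR. Fitness is the logarithm, base 2, of genotype enrichment over wild-type enrichment from inverse-variance-weighted replicate averages of Illumina-sequenced inputs and outputs, keeping genotypes with ≥10 input reads and ≥1 read per output.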
In the case of GACCAAUCUGGCCUCAGAGCUCGAGAACAUCUUCGGAUGCAGAGGAGGCAGGCUUCGGUGGCGCGAUAGCGCCAACGUCCUCAACCUCCAAUUCAUCCCACCACAUGAUGAUGCCUGAAGAGUCUUGGUUUUUUG [C11G G93U C123U], the “polymerase ribozyme fitness (log ratio)” value came out at 0.981.

Regarding GACCAAUCUGUCCUCAGAGCUCGAGAACAUCUUCGGAUGCAGAGGCGGCAGGCUUCGGUGGCGCGAUAGCGCCAACGUCCUCAACCUCCAAUGCAUCCCACCACAUGAUGAUGCCUGAAAAGCCUUGGUUUUGUG [C11U A46C G120A U133G], the “polymerase ribozyme fitness (log ratio)” value was -0.579.

On to GACCAAUCUGUCCUCUGAGCUCGAGUACAUCUUCGGAUGCAGAGGAGGCAGGCUUCGGUGGAGCGAUAGCGCCAACGUCCUCAACCUCCAAUGCAUCCCACCACAUGAUGAUGCCUGAACAGCCUUGGUUUUUUG [C11U A16U A26U C62A G120C], for which the “polymerase ribozyme fitness (log ratio)” value is -5.1.

Take GACCAAUCUGGCCUCAGAGCUCGAGAACAUCUUCGGAUGCAGAGGAGGCAGGCUUCGGUGGCGCGAUAGCGCCAACGUCCUCAACCUCCAAUGCAUCCCACCACAUGAUGAUGCCUGAACAGCCUUGGUUUUUUC [C11G G120C G135C]: the “polymerase ribozyme fitness (log ratio)” value is 2.47.

On to GACCAAUCUGUCAUCAGAGCUCGAGAACAUCUUCGGAUGCAGAGGAGGCAGGCUUCGGUGGCGCGAUAGCGCCAACGUCCUCAACCUCUAAUGCAUCCCACCACAUGAUGAUGCCUGAAGAGCCUUGGUUUUUUG [C11U C13A C89U], for which the “polymerase ribozyme fitness (log ratio)” value is -2.3.

As to GACCAAUCUGGCCUCAGAGCGCGAGAACAUCUUCGGAUGCAGAGGAGGCAGGAUCCGGUGGCGCGAUGGCGCCAACGUCCUCAACCUCCAAUGCAUCCCACCACAUGAUGAUGCCUGAAGAGCCUUGGUUUUUUG [C11G U21G C53A U55C A68G], the “polymerase ribozyme fitness (log ratio)” value is -5.

For the variant GACCAAUCUGUCCUCAGAGCUCGAGAACAUCUUCGGAUGCAGAGGCGGCAGGCUUCGGUGGCGCGAUAGCGCCAACGUCCUCAACCUCCAAUGCAUCCCACCACAUGAUGAUGCCUGAAGAGCCUUGGUUUUUUG [C11U A46C], the “polymerase ribozyme fitness (log ratio)” value was -1.05.

In the case of GACCAAUCUGGCCUCAGAGCUCGAGAACAUCCUCCGAUGCAGAGGAGGCAGGCUUCGGUGGCGCGAUAGCGCCAACGUCCUCAACCUCCAAUGCAUUCCACCACAUGAUGAUGCCUGAACAGCCUUGGUUUUUUG [C11G U32C G35C C97U G120C], the “polymerase ribozyme fitness (log ratio)” value was -2.23.

GACCAAUCUGGCCACAGAGCUCGAGAACAUCUUCGGAUGCAGAGGUGGCAGGCUUCGGUGAUGCGAUAGCGCCAACGUCCUCAACCUCCAAUGCAUCCCACCACAUGAUGAUGCCUGAAGAGCCUUGGUUUUUUG [C11G U14A A46U G61A C62U]: the “polymerase ribozyme fitness (log ratio)” value is -2.33.

For GACCAAUCUGUCAUCAGAGCUCGAGAACAUCUUCGGAUGCAGAGGAGGCAGGCUUCGGUGGCGCGAUAGCGCCAACGACCUCAACCUCCAAUGCAUCCCACCACAUGAUGAUGCCUGAAGAGCCUUGGUUUUUUG [C11U C13A U78A], the “polymerase ribozyme fitness (log ratio)” value was -0.472.

On to GACCAAUCUGUCCUCAGAGCUCGAGAGCAUCUUCGGAUGCAGAGGAGGCAGGCUUCGGUGGCGCGAUAGCGCCAAGGUCAUCAAACUCCAAUGCAUCCCACCACAUGAUGAGGCCUGAAGAGCCUUGGUUUUUUG [C11U A27G C76G C80A C85A U112G], for which the “polymerase ribozyme fitness (log ratio)” value was -0.749.

As for GACCAAUCUGUUCUCAGAGCUCGAGAACAUCUUAGGAUGCAGAGGAGGCAGGCUUCGGUGGCUCGAUAGCGCCAACGCCCUCAACCUCCAAUGCAUCCCACCAGAUGAUGAUGCCUCAAGAGCCUUGGUUUUUUG [C11U C12U C34A G63U U78C C104G G117C], the “polymerase ribozyme fitness (log ratio)” value was -6.71.

Turning to GACCAAUCUGGCCACAGAGCUCGAGAACAUCUUCGGAUGCAGAGGUGGCAGGCUUCGGUGGCGCGAUAGCGCCAACGUCCUCAACCUCCAAUGCAUCCCACCACAUGAUGAUGCCUGAAGAGCCUUGGUUUUUUG [C11G U14A A46U], the “polymerase ribozyme fitness (log ratio)” value is -1.11.

Consider GACCAAUCUGUCCUCAGUGCUCGAGAACAUCUUUGGAUGCAGAGGAGGCAGGCUUCGGUGGCGGGAUAGCGCCAACGUUCUCAACCUCCAAUGCAUCCCACCACAUGAUGAUGCCUGAAGAGACUUGGUUUUUUG [C11U A18U C34U C64G C79U C123A], for which the “polymerase ribozyme fitness (log ratio)” value was -5.92.

Take GACCAAUCUGUCCUCAGAGCUCGAGAACAUCUUCGGAUGCAGUGGAGGCAGGCUUCGGUGGCGCGAUAGUGCCAACGUCCUCAACCUCCAAUGCAUCUCACCACAUGAUGAUGCCUGAAGAUCCUUGGUUUUUUG [C11U A43U C70U C98U G122U]: the “polymerase ribozyme fitness (log ratio)” value is -4.47.

With GACCAAUCUGUGCUCAGAGCUCGAGAACAUCUUCGGAUGCAGAGGAGGCAGGCUUCGGUGGCGCGAUAGCGCCAACGUCCUCAACCUCCAAUGCAUCCCACCACAUGAUGAUGCCUGAAGAGCCUUGGUUUUUUG [C11U C12G], the “polymerase ribozyme fitness (log ratio)” value was -0.553.

With GACCAAUCUGUUCUCAGAGCUCGAGAACAUCUUCGGAUGCAGAGGAGGCAGGCUUCGGUGGCGCGAUAGCGCCAACGUCCUCAACCUCCAAUGCAUCCCACCACAUGAUGAUGCCUGAAGAGCCUUGGUUUUUUG [C11U C12U], the “polymerase ribozyme fitness (log ratio)” value is -0.628.

Regarding GACCAAUCUGGCCUCAGAGCUCGAGAACAUCUUCGGAUGCAGAGGAGGCAGGCUUCGGUGGCGCGAUAGCGCCAACGGCCUCAACCUCCAAUGCAUCUCACCACAUGAUGAUGCCUGAAGAGCCUUGGUUUUUUG [C11G U78G C98U], the “polymerase ribozyme fitness (log ratio)” value was -0.594.

In the case of GACCAAUCUGUCCUCAGGGCUCGAGAACAUCUUCGGAUGCAGAGGAGGCAGGCUUCGGUGGCGCGAUAGCGACAACGUCCUCAACCUCCAAUGCAUCCCACCACAUGAUGAUGCCUGAAGAGCCUUGGUUUUUUG [C11U A18G C72A], the “polymerase ribozyme fitness (log ratio)” value was -3.7.

Turning to GACCAAUCUGGCCUCAGAGCUCGAGAACAUCUUCGGAGGCAGAGGAGGCAGGCUUCGGUGGCGCGAUAGCGCCAACGUUCUCAACCUCCAAUGCAUCCCACCACAUGAUGAUGCCUGAAGAGCCUUGGUUUUUUG [C11G U38G C79U], the “polymerase ribozyme fitness (log ratio)” value was -1.02.

In the case of GACCAAUCUGUCCUCUGAGCUCGAGAACAUCUUCGGAUCCAAAGGAGGCAGGCUUUGGUGGCGCGAUAGCGCCAACGUCCUCAACCUCCAAUGCAUCCCACCACAUGAUGAUGCCUGAAGAGCCUUGGUUUUUUG [C11U A16U G39C G42A C56U], the “polymerase ribozyme fitness (log ratio)” value is -3.73.

The values are drawn from the RNAGym collection of RNA variant scans (doi:10.1073/pnas.2313332121).
